Molecular target: PABP1;eIF4G1 (88-653) (Homo sapiens;Homo sapiens, UniProt P11940;Q04637 1-636;88-653, |)
Test: EMSA

Sequence of PABP1;eIF4G1 (88-653) (P11940 whole entry, chain 1 of 2): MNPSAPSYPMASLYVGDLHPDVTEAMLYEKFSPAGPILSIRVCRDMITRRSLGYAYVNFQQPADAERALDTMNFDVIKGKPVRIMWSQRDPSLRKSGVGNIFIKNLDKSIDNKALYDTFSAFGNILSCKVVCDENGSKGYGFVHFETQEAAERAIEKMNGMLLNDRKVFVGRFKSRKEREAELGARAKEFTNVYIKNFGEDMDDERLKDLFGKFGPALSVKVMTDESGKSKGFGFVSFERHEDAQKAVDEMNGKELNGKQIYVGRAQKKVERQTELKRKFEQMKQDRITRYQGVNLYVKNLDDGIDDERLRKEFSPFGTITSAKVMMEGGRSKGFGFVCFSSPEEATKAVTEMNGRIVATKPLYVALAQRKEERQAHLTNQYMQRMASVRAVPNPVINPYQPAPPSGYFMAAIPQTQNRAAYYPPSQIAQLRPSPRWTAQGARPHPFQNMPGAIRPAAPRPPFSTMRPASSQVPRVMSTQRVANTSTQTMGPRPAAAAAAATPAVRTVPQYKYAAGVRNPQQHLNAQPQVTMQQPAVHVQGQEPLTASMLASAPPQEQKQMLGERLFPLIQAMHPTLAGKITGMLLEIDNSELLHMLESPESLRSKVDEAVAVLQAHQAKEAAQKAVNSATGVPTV
Sequence of PABP1;eIF4G1 (88-653) (Q04637 88-653, chain 2 of 2): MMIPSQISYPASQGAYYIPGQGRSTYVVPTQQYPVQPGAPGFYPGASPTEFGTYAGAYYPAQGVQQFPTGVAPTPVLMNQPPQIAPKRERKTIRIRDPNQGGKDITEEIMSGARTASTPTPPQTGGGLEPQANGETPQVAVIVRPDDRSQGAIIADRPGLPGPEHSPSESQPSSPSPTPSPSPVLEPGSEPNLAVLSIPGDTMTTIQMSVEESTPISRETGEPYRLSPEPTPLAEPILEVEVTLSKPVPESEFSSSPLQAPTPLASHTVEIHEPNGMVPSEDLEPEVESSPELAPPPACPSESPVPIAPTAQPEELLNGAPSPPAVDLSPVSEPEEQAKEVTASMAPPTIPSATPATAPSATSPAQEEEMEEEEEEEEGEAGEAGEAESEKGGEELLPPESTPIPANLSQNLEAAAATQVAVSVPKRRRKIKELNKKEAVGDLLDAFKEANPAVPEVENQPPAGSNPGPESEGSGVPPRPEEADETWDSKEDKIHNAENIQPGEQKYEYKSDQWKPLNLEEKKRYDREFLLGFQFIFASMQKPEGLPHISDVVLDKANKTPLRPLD

B1: Poly(A)18 (ssRNA)
RNA: AAAAAAAAAAAAAAAAAA
  binding result: binds

Source: paper PMC8897273 (Journal of molecular biology, 2022)
